# Laboratory results as given in the supplement of paper PMC7125110.
# ± gives the standard error. Variants at the floor of the assay were thinned out.
# B1: glmS ribozyme (parent)
# chain: AUAAAAGCGCCAGAACUACAGAAAUGUAGUUGACGAGGAGGAGGUUUAUCGAAUUUUCGGCGGAUGCCUCCAAA
# What was measured:
# Conditions in all cases: with glucosamine-6-phosphate
# glucosamine-6-phosphate [1] = variants of: B1; assay: self-cleavage kobs at 40 uM GlcN6P; higher = faster cleavage; RNA array
# How it was run: (§1)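 E. coli RNA polymerase transcribed barcoded ribozyme variants in situ on sequenced MiSeq chips, which were tracked via a hybridised Cy3 probe at 37 °C. Tiles were imaged over ~14 h after glucosamine-6-phosphate (40 μM to 10 mM) in HEPES/KCl/Mg(OAc)2 buffer was flowed in. Normalised per-tile medians were fit to one- or two-exponential decays for kobs, and kcat and KM came from weighted Michaelis–Menten fits.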
# glucosamine-6-phosphate [2] = variants of: B1; assay: self-cleavage kobs at 160 uM GlcN6P; higher = faster cleavage; RNA array
# How it was run: as §1
# glucosamine-6-phosphate [3] = variants of: B1; assay: self-cleavage kobs at 640 uM GlcN6P; higher = faster cleavage; RNA array
# How it was run: as §1
# glucosamine-6-phosphate [4] = variants of: B1; assay: self-cleavage kobs at 2500 uM GlcN6P; higher = faster cleavage; RNA array
# How it was run: as §1
# glucosamine-6-phosphate [5] = variants of: B1; assay: self-cleavage kobs at 10000 uM GlcN6P; higher = faster cleavage; RNA array
# How it was run: as §1
Variant,self-cleavage kobs at 40 uM GlcN6P (glucosamine-6-phosphate [1]) [s⁻¹],self-cleavage kobs at 160 uM GlcN6P (glucosamine-6-phosphate [2]) [s⁻¹],self-cleavage kobs at 640 uM GlcN6P (glucosamine-6-phosphate [3]) [s⁻¹],self-cleavage kobs at 2500 uM GlcN6P (glucosamine-6-phosphate [4]) [s⁻¹],self-cleavage kobs at 10000 uM GlcN6P (glucosamine-6-phosphate [5]) [s⁻¹]
G41C G60C,< 1e-05,< 1e-05,< 1e-05,< 1e-05,< 1e-05
G7C U30G,< 1e-05,< 1e-05,< 1e-05,< 1e-05,< 1e-05
G51C C58U C68A,< 1e-05,,,,
G51U G60U,< 1e-05,< 1e-05,< 1e-05,< 1e-05,< 1e-05
C16A C61U,< 1e-05,< 1e-05,< 1e-05,< 1e-05,< 1e-05
C11G G44U,< 1e-05,,< 1e-05,,< 1e-05
A14G A15C U54G,0.000827 ± 0.00016,,,,0.048 ± 0.017
A33G G62C,< 1e-05,,< 1e-05,< 1e-05,< 1e-05
C10U A64U,< 1e-05,< 1e-05,< 1e-05,< 1e-05,< 1e-05
C16A C50G,0.000251 ± 0.0001,7.18e-05 ± 1.9e-05,4.7e-05 ± 1.7e-05,5.49e-05 ± 1.1e-05,7.6e-05 ± 3.6e-05
A12U G37A C61G C70A,< 1e-05,,,,< 1e-05
G35A A64U C71A,< 1e-05,,,,
G13A G38U C50G A64G,6.47e-05 ± 2.4e-05,,0.00011 ± 5.2e-05,,
C11G A48U,< 1e-05,< 1e-05,< 1e-05,,< 1e-05
G38U U46C,< 1e-05,,,< 1e-05,
C8U G29A G60U,< 1e-05,,< 1e-05,,< 1e-05
A12C G38A G60A,< 1e-05,< 1e-05,,,< 1e-05
G35U,< 1e-05,< 1e-05,< 1e-05,< 1e-05,< 1e-05
